Among the data in patent US20180094059A1 (UNIVERSITAT STUTTGART, published 2018) are EC50 values, retold here.

The target in assay [1] is T1, EGFR on EGFR-positive tumor cell lines (UniProt P00533 25-1210, limits assumed).
T1 construct: whole, on cells; The cell line is named under assay or readout; also called EGFR+ cell lines
The assay is described as follows: flow cytometry, HCT116 cells.

The target in a further assay is T2, EGFR-Fc (UniProt P00533 25-645).
T2 construct: also called purified EGFR-Fc; not shown: Fc part
Nature of the assay: ELISA, EGFR-Fc. Background: In an ELISA, binding on a coated surface is turned into a signal by an enzyme label.

For assay [2], the target named is T1, EGFR on EGFR-positive tumor cell lines. Nature of the assay: flow cytometry, Colo205 cells.

B1: anti-EGFR IgG HC-scTRAIL3-FAVSGAA (other)
heavy: ASDYKDDDDKGAEVQLVESGGGLVQPGGSLRLSCAASGFSLTNYGVHWVRQAPGKGLEWLGVIWSGGNTDYNTPFTSRFTISRDNSKNTLYLQMNSLRAEDTAVYYCARALTYYDYEFAYWGQGTTVTVSSASTKGPSVFPLAPSSKSTSGGTAALGCLVKDYFPEPVTVSWNSGALTSGVHTFPAVLQSSGLYSLSSVVTVPSSSLGTQTYICNVNHKPSNTKVDKKVEPKSCDKTHTCPPCPAPPVAGPSVFLFPPKPKDTLMISRTPEVTCVVVDVSHEDPEVKFNWYVDGVEVHNAKTKPREEQYNSTYRVVSVLTVLHQDWLNGKEYKCKVSNKGLPSSIEKTISKAKGQPREPQVYTLPPSRDELTKNQVSLTCLVKGFYPSDIAVEWESNGQPENNYKTTPPVLDSDGSFFLYSKLTVDKSRWQQGNVFSCSVMHEALHNHYTQKSLSLSPGKAAGNGTSNGTSEFGGAAAHITGTRGRSNTLSSPNSKNEKALGRKINSWESSRSGHSFLSNLHLRNGELVIHEKGFYYIYSQTYFRFQEEIKENTKNDKQMVQYIYKYTSYPDPILLMKSARNSCWSKDAEYGLYSIYQGGIFELKENDRIFVSVTNEHLIDMDHEASFFGAFAVSGAAAHITGTRGRSNTLSSPNSKNEKALGRKINSWESSRSGHSFLSNLHLRNGELVIHEKGFYYIYSQTYFRFQEEIKENTKNDKQMVQYIYKYTSYPDPILLMKSARNSCWSKDAEYGLYSIYQGGIFELKENDRIFVSVTNEHLIDMDHEASFFGAFAVSGAAAHITGTRGRSNTLSSPNSKNEKALGRKINSWESSRSGHSFLSNLHLRNGELVIHEKGFYYIYSQTYFRFQEEIKENTKNDKQMVQYIYKYTSYPDPILLMKSARNSCWSKDAEYGLYSIYQGGIFELKENDRIFVSVTNEHLIDMDHEASFFGAFAVS
light: DIQLTQSPSFLSASVGDRVTITCRASQSIGTNIHWYQQKPGKAPKLLIKYASESISGVPSRFSGSGSGTEFTLTISSLQPEDFATYYCQQNNNWPTTFGAGTKLEIKRTVAAPSVFIFPPSDEQLKSGTASVVCLLNNFYPREAKVQWKVDNALQSGNSQESVTEQDSKDSTYSLSSTLTLSKADYEKHKVYACEVTHQGLSSPVTKSFNRGEC
notes: scTRAIL3-FAVSGAA at the C-terminus of the heavy chain; also called IgG-heavy chain (HC)-scTRAIL3
In the case of B1, the EC50 (commonly the concentration at which the effect is half-maximal) in assay [1] was determined as 118 pM; with EGFR-Fc, 343 pM; in assay [2] it was 81 pM.

B2: anti-EGFR IgG LC-scTRAIL3-FAVSGAA (other)
heavy: ASDYKDDDDKGAEVQLVESGGGLVQPGGSLRLSCAASGFSLTNYGVHWVRQAPGKGLEWLGVIWSGGNTDYNTPFTSRFTISRDNSKNTLYLQMNSLRAEDTAVYYCARALTYYDYEFAYWGQGTTVTVSSASTKGPSVFPLAPSSKSTSGGTAALGCLVKDYFPEPVTVSWNSGALTSGVHTFPAVLQSSGLYSLSSVVTVPSSSLGTQTYICNVNHKPSNTKVDKKVEPKSCDKTHTCPPCPAPPVAGPSVFLFPPKPKDTLMISRTPEVTCVVVDVSHEDPEVKFNWYVDGVEVHNAKTKPREEQYNSTYRVVSVLTVLHQDWLNGKEYKCKVSNKGLPSSIEKTISKAKGQPREPQVYTLPPSRDELTKNQVSLTCLVKGFYPSDIAVEWESNGQPENNYKTTPPVLDSDGSFFLYSKLTVDKSRWQQGNVFSCSVMHEALHNHYTQKSLSLSPGK
light: DIQLTQSPSFLSASVGDRVTITCRASQSIGTNIHWYQQKPGKAPKLLIKYASESISGVPSRFSGSGSGTEFTLTISSLQPEDFATYYCQQNNNWPTTFGAGTKLEIKRTVAAPSVFIFPPSDEQLKSGTASVVCLLNNFYPREAKVQWKVDNALQSGNSQESVTEQDSKDSTYSLSSTLTLSKADYEKHKVYACEVTHQGLSSPVTKSFNRGECAAGNGTSNGTSEFGGAAAHITGTRGRSNTLSSPNSKNEKALGRKINSWESSRSGHSFLSNLHLRNGELVIHEKGFYYIYSQTYFRFQEEIKENTKNDKQMVQYIYKYTSYPDPILLMKSARNSCWSKDAEYGLYSIYQGGIFELKENDRIFVSVTNEHLIDMDHEASFFGAFAVSGAAAHITGTRGRSNTLSSPNSKNEKALGRKINSWESSRSGHSFLSNLHLRNGELVIHEKGFYYIYSQTYFRFQEEIKENTKNDKQMVQYIYKYTSYPDPILLMKSARNSCWSKDAEYGLYSIYQGGIFELKENDRIFVSVTNEHLIDMDHEASFFGAFAVSGAAAHITGTRGRSNTLSSPNSKNEKALGRKINSWESSRSGHSFLSNLHLRNGELVIHEKGFYYIYSQTYFRFQEEIKENTKNDKQMVQYIYKYTSYPDPILLMKSARNSCWSKDAEYGLYSIYQGGIFELKENDRIFVSVTNEHLIDMDHEASFFGAFAVS
notes: scTRAIL3-FAVSGAA at the C-terminus of the kappa light chain through a 15 aa peptide with two N-glycosylation sites; also called IgG-light chain (LC)-scTRAIL3
For the molecule B2, the EC50 in assay [1] was determined as 181 pM; with EGFR-Fc, 460 pM; in assay [2] it was 148 pM.
